Test results published in publication PMC11574045, “A cofactor-induced repressive type of transcription factor condensation can be induced by synthetic peptides to suppress tumorigenesis” (The EMBO Journal, 2024).

B1: ARID5B (protein, UniProt Q14865 1-1188, looked up)
AT-rich interactive …: MEPNSLQWVGSPCGLHGPYIFYKAFQFHLEGKPRILSLGDFFFVRCTPKDPICIAELQLLWEERTSRQLLSSSKLYFLPEDTPQGRNSDHGEDEVIAVSEKVIVKLEDLVKWVHSDFSKWRCGFHAGPVKTEALGRNGQKEALLKYRQSTLNSGLNFKDVLKEKADLGEDEEETNVIVLSYPQYCRYRSMLKRIQDKPSSILTDQFALALGGIAVVSRNPQILYCRDTFDHPTLIENESICDEFAPNLKGRPRKKKPCPQRRDSFSGVKDSNNNSDGKAVAKVKCEARSALTKPKNNHNCKKVSNEEKPKVAIGEECRADEQAFLVALYKYMKERKTPIERIPYLGFKQINLWTMFQAAQKLGGYETITARRQWKHIYDELGGNPGSTSAATCTRRHYERLILPYERFIKGEEDKPLPPIKPRKQENSSQENENKTKVSGTKRIKHEIPKSKKEKENAPKPQDAAEVSSEQEKEQETLISQKSIPEPLPAADMKKKIEGYQEFSAKPLASRVDPEKDNETDQGSNSEKVAEEAGEKGPTPPLPSAPLAPEKDSALVPGASKQPLTSPSALVDSKQESKLCCFTESPESEPQEASFPSFPTTQPPLANQNETEDDKLPAMADYIANCTVKVDQLGSDDIHNALKQTPKVLVVQSFDMFKDKDLTGPMNENHGLNYTPLLYSRGNPGIMSPLAKKKLLSQVSGASLSSSYPYGSPPPLISKKKLIARDDLCSSLSQTHHGQSTDHMAVSRPSVIQHVQSFRSKPSEERKTINDIFKHEKLSRSDPHRCSFSKHHLNPLADSYVLKQEIQEGKDKLLEKRALPHSHMPSFLADFYSSPHLHSLYRHTEHHLHNEQTSKYPSRDMYRESENSSFPSHRHQEKLHVNYLTSLHLQDKKSAAAEAPTDDQPTDLSLPKNPHKPTGKVLGLAHSTTGPQESKGISQFQVLGSQSRDCHPKACRVSPMTMSGPKKYPESLSRSGKPHHVRLENFRKMEGMVHPILHRKMSPQNIGAARPIKRSLEDLDLVIAGKKARAVSPLDPSKEVSGKEKASEQESEGSKAAHGGHSGGGSEGHKLPLSSPIFPGLYSGSLCNSGLNSRLPAGYSHSLQYLKNQTVLSPLMQPLAFHSLVMQRGIFTSPTNSQQLYRHLAAATPVGSSYGDLLHNSIYPLAAINPQAAFPSSQLSSVHPSTKL
B2: HSF1 (protein, UniProt Q00613 1-529, looked up)
Heat shock factor protein 1: MDLPVGPGAAGPSNVPAFLTKLWTLVSDPDTDALICWSPSGNSFHVFDQGQFAKEVLPKYFKHNNMASFVRQLNMYGFRKVVHIEQGGLVKPERDDTEFQHPCFLRGQEQLLENIKRKVTSVSTLKSEDIKIRQDSVTKLLTDVQLMKGKQECMDSKLLAMKHENEALWREVASLRQKHAQQQKVVNKLIQFLISLVQSNRILGVKRKIPLMLNDSGSAHSMPKYSRQFSLEHVHGSGPYSAPSPAYSSSSLYAPDAVASSGPIISDITELAPASPMASPGGSIDERPLSSSPLVRVKEEPPSPPQSPRVEEASPGRPSSVDTLLSPTALIDSILRESEPAPASVTALTDARGHTDTEGRPPSPPPTSTPEKCLSVACLDKNELSDHLDAMDSNLDNLQTMLSSHGFSVDTSALLDLFSPSVTVPDMSLPDLDSSLASIQELLSPQEPPRPPEAENSSPDSGKQLVHYTAQPLFLLDPGSVDTGSNDLPVLFELGEGSYFSEGDGFAEDPTISLLTGSEPPKAKDPTVS
B3: HSBP1 (protein, UniProt O75506 1-76, looked up)
Heat shock factor-binding …: MAETDPKTVQDLTSVVQTLLQQMQDKFQTMSDQIIGRIDDMSSRIDDLEKNIADLMTQAGVEELESENKIPATQKS
B4: HNF4G (protein, UniProt Q14541 1-408, looked up)
Hepatocyte nuclear factor …: MNTTDNGVNCLCAICGDRATGKHYGASSCDGCKGFFRRSIRKSHVYSCRFSRQCVVDKDKRNQCRYCRLRKCFRAGMKKEAVQNERDRISTRRSTFDGSNIPSINTLAQAEVRSRQISVSSPGSSTDINVKKIASIGDVCESMKQQLLVLVEWAKYIPAFCELPLDDQVALLRAHAGEHLLLGATKRSMMYKDILLLGNNYVIHRNSCEVEISRVANRVLDELVRPFQEIQIDDNEYACLKAIVFFDPDAKGLSDPVKIKNMRFQVQIGLEDYINDRQYDSRGRFGELLLLLPTLQSITWQMIEQIQFVKLFGMVKIDNLLQEMLLGGASNDGSHLHHPMHPHLSQDPLTGQTILLGPMSTLVHADQISTPETPLPSPPQGSGQEQYKIAANQASVISHQHLSKQKQL
B5: ARID4A (protein, UniProt P29374 1-1257, looked up)
AT-rich interactive …: MKAADEPAYLTVGTDVSAKYRGAFCEAKIKTVKRLVKVKVLLKQDNTTQLVQDDQVKGPLRVGAIVETRTSDGSFQEAIISKLTDASWYTVVFDDGDERTLRRTSLCLKGERHFAESETLDQLPLTNPEHFGTPVIAKKTNRGRRSSLPVTEDEKEEESSEEEDEDKRRLNDELLGKVVSVVSATERTEWYPALVISPSCNDDITVKKDQCLVRSFIDSKFYSIARKDIKEVDILNLPESELSTKPGLQKASIFLKTRVVPDNWKMDISEILESSSSDDEDGPAEENDEEKEKEAKKTEEEVPEEELDPEERDNFLQQLYKFMEDRGTPINKPPVLGYKDLNLFKLFRLVYHQGGCDNIDSGAVWKQIYMDLGIPILNSAASYNVKTAYRKYLYGFEEYCRSANIQFRTVHHHEPKVKEEKKDLEESMEEALKLDQEMPLTEVKSEPEENIDSNSESEREEIELKSPRGRRRIARDVNSIKKEIEEEKTEDKLKDNDTENKDVDDDYETAEKKENELLLGRKNTPKQKEKKIKKQEDSDKDSDEEEEKSQEREETESKCDSEGEEDEEDMEPCLTGTKVKVKYGRGKTQKIYEASIKSTEIDDGEVLYLVHYYGWNVRYDEWVKADRIIWPLDKGGPKKKQKKKAKNKEDSEKDEKRDEERQKSKRGRPPLKSTLSSNMPYGLSKTANSEGKSDSCSSDSETEDALEKNLINEELSLKDELEKNENLNDDKLDEENPKISAHILKENDRTQMQPLETLKLEVGENEQIVQIFGNKMEKTEEVKKEAEKSPKGKGRRSKTKDLSLEIIKISSFGQNEAGSEPHIEAHSLELSSLDNKNFSSATEDEIDQCVKEKKLKRKILGQSSPEKKIRIENGMEMTNTVSQERTSDCIGSEGMKNLNFEQHFERENEGMPSLIAESNQCIQQLTSERFDSPAEETVNIPLKEDEDAMPLIGPETLVCHEVDLDDLDEKDKTSIEDVAVESSESNSLVSIPPALPPVVQHNFSVASPLTLSQDESRSVKSESDITIEVDSIAEESQEGLCERESANGFETNVASGTCSIIVQERESREKGQKRPSDGNSGLMAKKQKRTPKRTSAAAKNEKNGTGQSSDSEDLPVLDNSSKCTPVKHLNVSKPQKLARSPARISPHIKDGEKDKHREKHPNSSPRTYKWSFQLNELDNMNSTERISFLQEKLQEIRKYYMSLKSEVATIDRRRKRLKKKDREVSHAGASMSSASSDTGMSPSSSSPPQNVLAVECR
B6: HOXC13 (protein, UniProt P31276 1-330, looked up)
Homeobox protein Hox-C13: MTTSLLLHPRWPESLMYVYEDSAAESGIGGGGGGGGGGTGGAGGGCSGASPGKAPSMDGLGSSCPASHCRDLLPHPVLGRPPAPLGAPQGAVYTDIPAPEAARQCAPPPAPPTSSSATLGYGYPFGGSYYGCRLSHNVNLQQKPCAYHPGDKYPEPSGALPGDDLSSRAKEFAFYPSFASSYQAMPGYLDVSVVPGISGHPEPRHDALIPVEGYQHWALSNGWDSQVYCSKEQSQSAHLWKSPFPDVVPLQPEVSSYRRGRKKRVPYTKVQLKELEKEYAASKFITKEKRRRISATTNLSERQVTIWFQNRRVKEKKVVSKSKAPHLHST
B7: ARID3C (protein, UniProt A6NKF2 1-412, looked up)
AT-rich interactive …: MEALQKQQAARLAQGVGPLAPACPLLPPQPPLPDHRTLQAPEGALGNVGAEEEEDAEEDEEKREEAGAEEEAAEESRPGAQGPSSPSSQPPGLHPHEWTYEEQFKQLYELDADPKRKEFLDDLFSFMQKRGTPVNRVPIMAKQVLDLYALFRLVTAKGGLVEVINRKVWREVTRGLSLPTTITSAAFTLRTQYMKYLYPYECETRALSSPGELQAAIDSNRREGRRQAYTATPLFGLAGPPPRGAQDPALGPGPAPPATQSSPGPAQGSTSGLPAHACAQLSPSPIKKEESGIPNPCLALPVGLALGPTREKLAPEEPPEKRAVLMGPMDPPRPCMPPSFLPRGKVPLREERLDGPLNLAGSGISSINMALEINGVVYTGVLFARRQPVPASQGPTNPAPPPSTGPPSSILP

Tested on: HEK293FT cells transfected with TF library
Assay: Screening of TF condensates based on fluorescent puncta
Assay type: cell-based
Settings: Figure 1B numerical data; TF library screen, one value per transcriptional factor
Procedure, shortened: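 Cells were seeded onto plasmid/PEI-loaded wells (plasmid 1.6 μg/ml final) and grown 60 h. Medium with or without glucose followed for 12 h. Fixed, permeabilized cells were stained against Flag or GAL4 tags, and condensate puncta were quantified from 50 random fields per well.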

Molecule	Z score of condensed fraction
B1	-1.099
B2	-1.041
B3	-0.06777
B4	0.7637
B5	0.8979
B6	-0.9976
B7	0.4617
